Like-named read-outs stand apart in the source and are kept apart here.
Key:
crystal structure [1] = target: the molecule itself; assay: crystal structure
crystal structure [2] = target: the molecule itself; assay: crystal structure; remark: listed apart in the source
crystal structure [3] = target: the molecule itself; assay: crystal structure; remark: listed apart in the source
[4] = target: T1, human GRASP55 N-terminal domain (residues 1–263) (human, UniProt Q9H8Y8-1 1-263); assay: SPR
[5] = target: T2, human GRASP55 full length (residues 1–452) (human, UniProt Q9H8Y8-1 1-452); assay: SPR
[6] = target: T1, human GRASP55 N-terminal domain …; assay: AUC
[7] = target: T2, human GRASP55 full length (residues …); assay: AUC

B1: human KCTD5 N-module (residues 40–145) (domain or fragment)
chain: not shown
**Q.** For B1, which “stoichiometry N” value (crystal structure [1]) is on record?
**A.** 5 subunits

B2: human KCTD5 residues 34–234, seleno-methionine labeled (domain or fragment, UniProt Q9NXV2 34-234, looked up)
chain: ALAQRPGSVSKWVRLNVGGTYFLTTRQTLCRDPKSFLYRLCQADPDLDSDKDETGAYLIDRDPTYFGPVLNYLRHGKLVINKDLAEEGVLEEAEFYNITSLIKLVKDKIRERDSKTSQVPVKHVYRVLQCQEEELTQMVSTMSDGWKFEQLVSIGSSYNYGNEDQAEFLCVVSKELHNTPYGTASEPSEKAKILQERGSRM
modifications: seleno-methionine labeled (two seleno-methionine residues, M171 and M175, in the C-terminal domain)
**Q.** For B2, which “stoichiometry N” value (crystal structure [2]) is on record?
**A.** 5 subunits

B3: human KCTD5 residues 34–234 ("full length" construct for structural and binding analysis), native (domain or fragment, UniProt Q9NXV2 34-234, looked up)
chain: B2 chain
**Q.** How did the “stoichiometry N” value (crystal structure [3]) turn out when B3 was run?
**A.** 5 subunits

**Q.** And the koff [4]?
**A.** 0.00223 s⁻¹

**Q.** And the kon [4]?
**A.** 2590 M⁻¹ s⁻¹

**Q.** What about the koff [5] of the same binder?
**A.** 0.00103 s⁻¹

**Q.** What about the kon [5] of the same binder?
**A.** 870 M⁻¹ s⁻¹

**Q.** And the Kd [6]?
**A.** 8.26 ± 1.6 µM

**Q.** And the Kd [7]?
**A.** 1.41 ± 0.26 µM

Source: PMC2670943 (Journal of molecular biology, 2009)
